Source: paper PMC3491091

Target: soybean trypsin inhibitor (soybean) (UniProt P01070)
Assay: SPR + ITC + AUC + fluorescence polarisation

α-chymotrypsin (enzyme)
stoichiometry N: 2
